The source of these data is US20180273599A1.

Bounds are passed on as bounds.

For assay [1], the target named is T1, HIS-tagged inhibin α-subunit prodomain (human) (UniProt P05111).
T1 sequence: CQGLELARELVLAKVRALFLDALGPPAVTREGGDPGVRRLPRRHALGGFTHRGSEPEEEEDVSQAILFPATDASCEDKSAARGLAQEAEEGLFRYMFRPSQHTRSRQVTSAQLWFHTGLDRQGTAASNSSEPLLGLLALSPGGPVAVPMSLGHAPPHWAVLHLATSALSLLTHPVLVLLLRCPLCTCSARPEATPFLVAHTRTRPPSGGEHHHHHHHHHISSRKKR
Put plainly: IMAC (Ni-NTA) co-purification from HEK293T conditioned medium; Western blot and ELISA. For orientation: A western blot detects proteins with antibodies after separation by electrophoresis.

Assay [2] has as its target T2, betaglycan on LβT2 mouse pituitary gonadotrope cells (mouse) (UniProt O88393).
T2 sequence (looked up): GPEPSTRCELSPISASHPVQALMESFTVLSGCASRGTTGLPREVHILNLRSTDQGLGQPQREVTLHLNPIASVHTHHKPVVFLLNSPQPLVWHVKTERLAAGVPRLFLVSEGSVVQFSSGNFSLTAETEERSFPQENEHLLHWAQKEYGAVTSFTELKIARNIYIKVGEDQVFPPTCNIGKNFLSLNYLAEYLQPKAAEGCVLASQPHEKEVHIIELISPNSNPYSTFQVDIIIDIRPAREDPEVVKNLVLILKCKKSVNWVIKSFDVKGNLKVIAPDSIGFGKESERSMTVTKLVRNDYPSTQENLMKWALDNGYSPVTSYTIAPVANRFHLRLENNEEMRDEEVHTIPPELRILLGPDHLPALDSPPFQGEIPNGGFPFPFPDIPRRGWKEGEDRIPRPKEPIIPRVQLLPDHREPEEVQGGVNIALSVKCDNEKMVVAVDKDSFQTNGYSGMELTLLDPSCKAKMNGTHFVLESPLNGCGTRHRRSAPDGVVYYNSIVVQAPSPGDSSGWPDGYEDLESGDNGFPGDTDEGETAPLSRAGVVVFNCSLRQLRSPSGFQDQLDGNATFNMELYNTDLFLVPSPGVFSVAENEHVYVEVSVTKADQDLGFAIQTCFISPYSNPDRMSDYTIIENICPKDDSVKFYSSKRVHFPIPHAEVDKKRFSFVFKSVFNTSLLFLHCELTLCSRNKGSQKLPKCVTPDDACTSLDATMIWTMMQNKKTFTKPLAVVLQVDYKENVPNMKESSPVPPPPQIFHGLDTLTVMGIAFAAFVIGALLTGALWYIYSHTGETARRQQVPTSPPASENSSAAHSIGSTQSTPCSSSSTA
In words: cell-based or functional assay.

For assay [3], the target named is T3, betaglycan on primary rat pituitary cells (rat) (UniProt P26342).
T3 sequence (looked up): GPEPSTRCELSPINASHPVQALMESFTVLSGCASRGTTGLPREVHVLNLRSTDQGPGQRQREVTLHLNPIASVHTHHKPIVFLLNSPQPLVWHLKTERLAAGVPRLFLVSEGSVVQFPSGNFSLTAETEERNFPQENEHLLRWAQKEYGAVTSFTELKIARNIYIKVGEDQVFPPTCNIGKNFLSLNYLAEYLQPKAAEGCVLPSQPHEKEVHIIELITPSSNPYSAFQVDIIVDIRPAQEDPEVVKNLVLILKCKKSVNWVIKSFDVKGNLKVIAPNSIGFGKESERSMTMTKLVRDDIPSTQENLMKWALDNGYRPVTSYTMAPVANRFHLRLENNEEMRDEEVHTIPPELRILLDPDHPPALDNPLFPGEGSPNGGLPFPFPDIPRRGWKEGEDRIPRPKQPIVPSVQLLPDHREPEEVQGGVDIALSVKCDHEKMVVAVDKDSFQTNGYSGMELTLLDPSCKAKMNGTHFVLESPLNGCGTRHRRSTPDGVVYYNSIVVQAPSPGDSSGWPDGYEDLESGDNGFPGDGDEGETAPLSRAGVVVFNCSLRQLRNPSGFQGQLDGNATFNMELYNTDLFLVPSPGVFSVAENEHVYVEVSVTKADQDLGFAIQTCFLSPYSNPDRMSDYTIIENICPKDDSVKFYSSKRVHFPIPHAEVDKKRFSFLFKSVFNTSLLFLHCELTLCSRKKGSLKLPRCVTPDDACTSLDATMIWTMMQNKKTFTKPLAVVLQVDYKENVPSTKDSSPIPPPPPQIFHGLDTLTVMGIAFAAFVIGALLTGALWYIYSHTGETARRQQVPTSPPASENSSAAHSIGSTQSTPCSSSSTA
Put plainly: cell-based or functional assay.

For assay [4], the target named is T4, type I receptor (ALK4) (UniProt P36896).
T4 sequence (looked up): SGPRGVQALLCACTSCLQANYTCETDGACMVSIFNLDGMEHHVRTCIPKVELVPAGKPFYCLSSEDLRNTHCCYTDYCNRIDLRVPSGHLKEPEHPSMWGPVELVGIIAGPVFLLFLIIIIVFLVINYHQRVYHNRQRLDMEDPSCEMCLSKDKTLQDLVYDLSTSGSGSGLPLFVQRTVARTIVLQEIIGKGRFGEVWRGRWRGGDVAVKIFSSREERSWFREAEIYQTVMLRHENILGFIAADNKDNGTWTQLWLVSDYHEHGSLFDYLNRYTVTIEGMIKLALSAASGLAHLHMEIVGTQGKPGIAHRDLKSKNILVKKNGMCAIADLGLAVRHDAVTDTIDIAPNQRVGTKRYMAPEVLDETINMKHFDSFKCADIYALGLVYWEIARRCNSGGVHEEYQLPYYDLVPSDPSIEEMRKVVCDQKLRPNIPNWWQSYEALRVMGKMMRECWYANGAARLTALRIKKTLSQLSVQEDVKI
Put plainly: cell-based or functional assay.

B1: mature inhibin A (M418A) (ligand)
chain 1: SVSSTPLMSWPWSPSALRLLQRPPEEPAAHANCHRVALNISFQELGWERWIVYPPSFIFHYCHGGCGLHIPPNLSLPVPGAPPTPAQPYSLLPGAQPCCAALPGTMRPLHVRTTSDGGYSFKYETVPNLLTQHCACI
chain 2: SVSSGLECDGKVNICCKKQFFVSFKDIGWNDWIIAPSGYHANYCEGECPSHIAGTSGSSLSFHSTVINHYRMRGHSPFANLKSCCVPTKLRPMSMLYYDDGQNIIKKDIQNAIVEECGCS
In turn, B1 came in with a percent of mature inhibin A co-purified with the HIS-tagged prodomain in assay [1] of more than 90%.

B2: HPLC-purified mature inhibin A (ligand)
chain 1: STPLMSWPWSPSALRLLQRPPEEPAAHANCHRVALNISFQELGWERWIVYPPSFIFHYCHGGCGLHIPPNLSLPVPGAPPTPAQPYSLLPGAQPCCAALPGTMRPLHVRTTSDGGYSFKYETVPNLLTQHCACI
chain 2: GLECDGKVNICCKKQFFVSFKDIGWNDWIIAPSGYHANYCEGECPSHIAGTSGSSLSFHSTVINHYRMRGHSPFANLKSCCVPTKLRPMSMLYYDDGQNIIKKDIQNMIVEECGCS
In turn, B2 yielded an IC50, FSH release by LβT2 pituitary gonadotrope cells in assay [2] of 1 nM. Moreover, the IC50, decrease in FSH release by primary rat pituitary cells in assay [3] came out at 0.065 nM.

B3: Pro-inhibin A (M418A) (ligand)
chain 1: CQGLELARELVLAKVRALFLDALGPPAVTREGGDPGVRRLPRRHALGGFTHRGSEPEEEEDVSQAILFPATDASCEDKSAARGLAQEAEEGLFRYMFRPSQHTRSRQVTSAQLWFHTGLDRQGTAASNSSEPLLGLLALSPGGPVAVPMSLGHAPPHWAVLHLATSALSLLTHPVLVLLLRCPLCTCSARPEATPFLVAHTRTRPPSGGEHHHHHHHHHISSRKKRSVSSTPLMSWPWSPSALRLLQRPPEEPAAHANCHRVALNISFQELGWERWIVYPPSFIFHYCHGGCGLHIPPNLSLPVPGAPPTPAQPYSLLPGAQPCCAALPGTMRPLHVRTTSDGGYSFKYETVPNLLTQHCACI
chain 2: DYKDDDDKSPTPGSEGHSAAPDCPSCALAALPKDVPNSQPEMVEAVKKHILNMLHLKKRPDVTQPVPKAALLNAIRKLHVGKVGENGYVEIEDDIGRRAEMNELMEQTSEIITFAESGTARKTLHFEISKEGSDLSVVERAEVWLFLKVPKANRTRTKVTIRLFQQQKHPQGSLDTGEEAEEVGLKGERSELLLSEKVVDARKSTWHVFPVSSSIQRLLDQGKSSLDVRIACEQCQESGASLVLLGKKKKKEEEGEGKKKGGGEGGAGADEEKEQSHRPFLMLQARQSEDHPHISSRKKRSVSSGLECDGKVNICCKKQFFVSFKDIGWNDWIIAPSGYHANYCEGECPSHIAGTSGSSLSFHSTVINHYRMRGHSPFANLKSCCVPTKLRPMSMLYYDDGQNIIKKDIQNAIVEECGCS
In assay [2], B3 returned an IC50, FSH release by LβT2 pituitary gonadotrope cells of 0.045 nM and a potency in FSH release by LβT2 cells, against mature inhibin A of 22 fold. Moreover, the IC50, decrease in FSH release by primary rat pituitary cells in assay [3] was found to be 0.075 nM.

B4: activin A (M418A), residual in the inhibin A-SCUT (M418A) preparation (ligand)
chain: B3 chain 2
In assay [4], B4 had an activin response, activin-responsive luciferase reporter (A3-Luc) in HEK293 cells, against inhibin A-SCUT without M418A of 100 fold lower.
